Data published in the supplement of paper PMC9876800.

Test system: peptide library, one residue held at a place counted from the S/T acceptor
Test: relative phosphorylation of the sub-library (ratio to the mean residue at this position); higher = residue favoured
Conditions: human
Procedure, shortened: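 Each biotinylated degenerate peptide sub-library fixed one residue at one position around a central Ser/Thr and was incubated with a purified recombinant kinase, a human or orthologue construct, in 384-well plates. The 90 min reactions, under kinase-specific conditions, contained 50 μM peptide and 50 μM ATP spiked with γ-32P-ATP. Phosphorylation was read by phosphorimaging spots on streptavidin membranes and quantifying them by densitometry. Relative sub-library phosphorylation expresses each value as a ratio to the mean residue at that position.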

ROCK1, construct: aa1-535, sequence (Q13464 1-535, looked up): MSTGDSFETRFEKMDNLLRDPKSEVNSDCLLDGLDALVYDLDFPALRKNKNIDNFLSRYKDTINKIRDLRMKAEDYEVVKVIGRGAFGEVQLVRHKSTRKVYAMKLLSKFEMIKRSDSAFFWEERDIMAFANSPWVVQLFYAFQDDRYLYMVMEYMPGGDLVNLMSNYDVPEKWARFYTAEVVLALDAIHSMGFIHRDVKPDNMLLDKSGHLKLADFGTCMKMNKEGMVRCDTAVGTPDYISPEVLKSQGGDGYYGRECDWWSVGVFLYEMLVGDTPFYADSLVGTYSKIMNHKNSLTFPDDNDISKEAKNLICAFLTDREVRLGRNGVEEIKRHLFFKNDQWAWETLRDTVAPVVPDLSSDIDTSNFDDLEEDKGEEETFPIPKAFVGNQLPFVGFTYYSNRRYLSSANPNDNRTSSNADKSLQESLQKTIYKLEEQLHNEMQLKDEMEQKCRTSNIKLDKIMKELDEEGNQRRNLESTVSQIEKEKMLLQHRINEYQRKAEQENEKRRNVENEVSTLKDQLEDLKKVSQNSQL
WNK3, construct: aa1-434, sequence (Q9BYP7 1-434, looked up): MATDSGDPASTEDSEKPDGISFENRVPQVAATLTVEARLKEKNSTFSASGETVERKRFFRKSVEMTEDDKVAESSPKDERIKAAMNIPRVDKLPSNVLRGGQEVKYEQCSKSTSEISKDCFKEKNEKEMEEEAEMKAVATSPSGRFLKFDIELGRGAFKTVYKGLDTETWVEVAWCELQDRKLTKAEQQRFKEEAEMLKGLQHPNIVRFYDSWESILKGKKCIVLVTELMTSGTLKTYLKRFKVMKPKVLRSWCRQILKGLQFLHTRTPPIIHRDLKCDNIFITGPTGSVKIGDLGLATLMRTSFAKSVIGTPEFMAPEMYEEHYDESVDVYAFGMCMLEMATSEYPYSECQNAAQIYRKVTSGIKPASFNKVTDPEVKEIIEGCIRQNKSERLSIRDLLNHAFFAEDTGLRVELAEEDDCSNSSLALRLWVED

MTOR, construct: aa1362-end (from UniProt P42345)
relative phosphorylation
Conditions	at +1	at +2	at +3	at +4	at -1	at -2	at -3	at -4	at -5
A fixed	0.644	0.815	1.08	0.948	0.839	1.52	0.751	0.924	0.888
D fixed	0.338	1.2	1.11	0.821	0.489	0.686	0.747	1.1	1.21
E fixed	0.342	0.889	1.07	0.829	0.709	0.643	0.983	1.09	1.04
F fixed	1.72	0.686	0.647	1.01	1.01	1.09	1.09	1.08	1
G fixed	0.613	0.903	1.43	1.21	2.83	1.58	1.01	0.942	1.07
H fixed	0.556	1.24	1.17	1.28	1.18	1.05	1.14	1.21	1.15
I fixed	0.707	0.686	0.601	0.706	0.433	0.88	0.778	0.747	0.593
K fixed	0.487	1.58	1.35	1.36	0.986	0.854	0.924	0.879	1.1
L fixed	1.43	1.16	0.756	0.695	0.698	0.682	0.938	0.956	0.724
M fixed	1.02	0.673	0.694	0.868	1.13	0.705	1.05	1.07	0.807
N fixed	0.452	1.12	1.33	0.968	1.36	0.954	0.986	0.939	0.923
P fixed	2.13	1.31	0.993	0.872	0.786	1.56	1.09	0.955	1.47
Q fixed	0.561	0.83	0.942	0.92	1.15	0.838	0.949	0.953	0.862
R fixed	0.506	1.7	1.2	1.2	1.15	0.973	1.1	1.02	1.04
V fixed	0.816	0.728	0.675	0.7	0.482	0.985	0.795	0.708	0.745
W fixed	1.99	0.643	0.99	1.41	0.721	1.05	1.2	1.3	1.36
Y fixed	2.68	0.836	0.972	1.2	1.05	0.956	1.47	1.13	1.01
pThr fixed	0.637	1.71	1.67	1.27	0.546	1.01	1.15	1.34	1.16
pTyr fixed	1.06	0.721	1	0.941	0.841	1.27	1.66	1.37	1.21

PKN1, construct: aa460-982 (from UniProt Q16512)
relative phosphorylation
Conditions	at +1	at +2	at +3	at +4	at -1	at -2	at -3	at -4	at -5
A fixed	0.528	0.745	0.906	1	1.03	1.13	0.67	1.01	0.865
D fixed	0.183	0.162	0.281	0.393	0.581	0.2	0.126	0.354	0.262
E fixed	0.171	0.149	0.352	0.372	0.509	0.254	0.14	0.536	0.256
F fixed	4.71	0.739	1.14	0.743	1.03	0.85	0.456	1.06	1.19
G fixed	0.361	0.397	0.783	0.98	1	0.777	0.412	1.14	0.789
H fixed	0.564	1.34	1.02	1.22	1.22	1.16	0.907	1.03	0.761
I fixed	1.26	0.785	1.04	0.753	0.535	0.557	0.407	0.88	1.6
K fixed	0.784	2.16	1.46	2.04	1.53	2	2	1.73	1.2
L fixed	1.13	1.1	1.06	0.794	0.973	0.638	0.455	0.922	1.84
M fixed	2.16	0.896	1.06	0.819	1.05	0.89	0.483	1.07	0.967
N fixed	0.483	0.575	0.629	0.929	1.16	0.926	0.315	0.717	0.49
P fixed	0.266	0.297	0.493	1.4	1.16	0.347	0.328	0.59	0.921
Q fixed	0.62	0.578	0.736	0.996	0.947	1.05	0.585	0.842	0.643
R fixed	0.999	4.44	2	1.86	1.51	3.36	8.17	2.01	1.61
V fixed	0.852	0.749	1.02	0.678	0.622	0.781	0.373	0.991	1.55
W fixed	0.889	0.675	1.5	1.15	0.9	1.1	0.58	0.992	0.926
Y fixed	1.04	1.22	1.53	0.87	1.24	0.978	0.6	1.13	1.14
pThr fixed	0.476	0.43	0.412	0.443	0.302	0.296	0.259	0.551	0.368
pTyr fixed	0.314	0.354	0.567	0.384	0.388	0.266	0.215	0.412	0.514

ROCK1, construct: aa1-535 (from UniProt Q13464)
relative phosphorylation
Conditions	at +1	at +2	at +3	at +4	at -1	at -2	at -3	at -4	at -5
A fixed	0.632	0.883	1.01	0.721	0.745	0.528	0.549	0.906	0.953
D fixed	0.366	0.412	0.54	0.674	0.384	0.203	0.219	0.44	0.454
E fixed	0.358	0.39	0.488	0.656	0.303	0.188	0.231	0.525	0.462
F fixed	0.758	0.678	1.11	1.13	0.579	0.42	0.343	0.653	0.703
G fixed	0.706	0.773	1.42	1.06	1.03	0.534	0.577	1.1	1.06
H fixed	0.963	1.13	1.23	1.15	1.23	1.12	1.35	1.15	1.19
I fixed	1.43	1.13	0.81	0.866	0.52	0.268	0.28	0.532	0.603
K fixed	1.1	1.6	1.08	1.35	2.43	2.69	2.63	2.22	2.44
L fixed	1.57	1.2	1.01	1.06	1.02	0.359	0.316	0.571	0.495
M fixed	1.64	0.968	0.913	0.999	1.06	0.448	0.352	0.732	0.586
N fixed	1.38	0.854	0.988	1.15	1.14	0.906	0.575	0.89	0.878
P fixed	0.224	0.727	1.15	0.994	0.816	0.43	0.412	0.891	0.931
Q fixed	1.33	0.866	0.897	1.12	1.11	0.842	0.703	0.88	0.83
R fixed	2.22	2.27	1.34	1.37	2.27	6.35	7.13	3.19	3.2
V fixed	0.969	1.26	0.818	0.709	0.648	0.317	0.293	0.657	0.672
W fixed	0.704	0.808	1.16	1.07	0.673	0.774	0.562	0.885	0.759
Y fixed	0.648	1.05	1.03	0.927	1.05	0.623	0.485	0.777	0.778
pThr fixed	0.432	0.607	0.507	0.658	0.315	0.378	0.392	0.712	0.745
pTyr fixed	0.477	0.576	0.731	0.674	0.525	0.329	0.407	0.625	0.817

WNK3, construct: aa1-434 (from UniProt Q9BYP7)
relative phosphorylation
Conditions	at +1	at +2	at +3	at +4	at -1	at -2	at -3	at -4	at -5
A fixed	0.622	0.792	0.655	0.69	0.647	1.05	0.84	0.962	0.856
D fixed	0.416	0.7	0.675	0.609	0.462	0.409	0.519	0.598	0.749
E fixed	0.359	0.496	0.64	0.647	0.6	0.361	0.552	0.766	0.91
F fixed	1.36	1.09	1.43	1.25	0.983	0.865	0.748	0.843	1.14
G fixed	0.784	0.939	0.674	0.771	0.605	1.41	0.728	0.853	0.972
H fixed	1.02	0.981	1.31	1.01	1.11	1.56	1.44	1.3	1.24
I fixed	1.19	1.59	1.09	1.38	0.924	0.746	0.95	0.836	0.879
K fixed	0.825	0.772	1	1	1.51	1.19	1.7	1.37	1.39
L fixed	1.61	1.5	1.32	1.29	1.26	0.8	0.862	0.858	0.753
M fixed	1.84	1.54	1.29	1.41	1.49	0.852	1.16	0.894	0.861
N fixed	0.937	0.654	0.747	0.682	0.799	0.815	0.795	0.973	0.968
P fixed	0.278	0.356	0.441	0.626	0.428	1.24	0.794	0.8	0.702
Q fixed	1.16	0.608	0.648	0.677	1.22	0.768	1.11	0.901	0.986
R fixed	1.16	1.64	0.994	0.959	1.53	1.85	1.87	1.77	1.69
V fixed	1.03	1.28	0.994	1.35	1.09	1.07	0.871	0.957	0.818
W fixed	1.06	0.946	1.59	1.4	1.15	1.01	1.01	1.14	0.974
Y fixed	1.33	1.12	1.51	1.24	1.2	0.997	1.06	1.19	1.12
pThr fixed	0.485	0.521	0.513	0.543	0.566	0.779	0.812	0.96	0.798
pTyr fixed	0.566	0.549	0.663	0.56	0.893	0.555	0.741	0.842	0.859
